# Test results as given in US20230002489A1 (SHANGHAI EPIMAB BIOTHERAPEUTICS, published 2023).
# Positions count from the first letter of the chain named.
# T1: BCMA on NCI-H929 cells (human, UniProt Q02223 1-184)
# T1 sequence (looked up): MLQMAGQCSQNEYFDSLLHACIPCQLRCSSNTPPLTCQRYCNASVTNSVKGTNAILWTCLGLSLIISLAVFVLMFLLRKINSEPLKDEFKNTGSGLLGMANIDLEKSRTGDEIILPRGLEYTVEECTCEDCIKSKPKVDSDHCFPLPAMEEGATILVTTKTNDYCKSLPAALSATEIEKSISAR
# T2: BCMA on HEK293F-BCMA-NF-kB-luc cells (clone 1H2) (UniProt Q02223 1-184, limits assumed)
# T2 sequence (looked up): T1 sequence (looked up)
# T3: cynoCD3εγ/Fc fusion protein (cynomolgus monkey, UniProt Q95LI5 22-117; Q95LI7 23-113)
# T3 construct: also called cynomolgus monkey CD3ε/γ heterodimer-Fc fusion protein; not shown: linker and Fc not described for the cynomolgus construct
# T3 sequence (looked up) 1: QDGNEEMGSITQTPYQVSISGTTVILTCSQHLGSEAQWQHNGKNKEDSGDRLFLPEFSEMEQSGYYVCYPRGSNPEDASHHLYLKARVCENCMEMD
# T3 sequence (looked up) 2: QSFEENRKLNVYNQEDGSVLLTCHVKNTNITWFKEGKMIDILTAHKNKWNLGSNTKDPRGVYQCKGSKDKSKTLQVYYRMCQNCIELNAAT
# B1: mAbBCMA-003 (antibody, V domains shown)
# VH: EVQLQQSGTVLARPGASVRMSCKASGYIFPNFWMHWVKQRPGQGLDWIGAFYPGNDDTYYNQKFKGKAKLTAVTSASTAYMELSSLTSEDSAVYYCARSGYYGSSDAMDYWGQGTSVTVSS
# VL: DIQMTQSPASLSASVGETVTVTCGASENIYGALNWYQRKQGKSPQLLIYGATNLADGISSRFSGSGSGRQFSLKISSLLPDDVATYFCQSVLTTPWTFGGGTKLEIK
# notes: Mouse anti-BCMA IgG from hybridoma
# B2: mAbCD3-001 (antibody, V domains shown)
# VH: QVQLQQSGPDLVKPGASVKISCKASGFSFTNYYVHWMKQRPGQGLEWIGWISPGSDNTKYNEKFKGKATLTADTSSTTAYMQLSSLTSEDSAVYYCARDDYGNYYFDYWGRGSTLTVSS
# VL: DIVMSQSPSSLAVSAGEKVTMTCKSSQSLLNSRTRKNYLAWYQQKPGQSPKLLIYWASTRESGVPDRFTGSGSGTDFTLTISSVQAEDLAVYYCKQSYILRTFGGGTKLEIK
# notes: Murine hybridoma monoclonal antibody
# B3: mAbCD3-002 (antibody, V domains shown)
# VH: QVQLQQSGPELVKPGASVRISCKASGYTFTNYYIHWVKQRPGQGLEWIGWINLGDVNTKFNEKFKDKATLTADKSSTTAYMQLSSLTSEDSAVYFCARDGYSFYYFDFWGQGTTLTVSS
# VL: B2 VL with A15V, T22S, S25A, L30F, T78I, L79F, V91I, K95I, Y98H, I99T
# notes: as for B2
# B4: HuEM0006-01c (antibody, human IgG1, kappa, L234A L235A, V domains shown)
# VH: B2 VH
# VL: DIVMSQSPSSLAVSAGEKVTMTCKSSQSLLNSRTRKNYLAWYQQKPGQSPKLLIYWASTRESGVPDRFTGSGSGTDFTLTISSVQAEDLAVYYCKQSYILRTFGGGTKLEIKR
# notes: also called chimeric control antibody
# Legend:
# [1] = molecular target: T4, cynomolgus BCMA(ECD)/Fc target polypeptide (cynomolgus); experiment: SPR, Biacore T200, 25 C; antibody captured on anti-mouse IgG Fc, BCMA(ECD)/Fc injected
# T4 construct: extracellular domain; also called Cyno BCMA (ECD); cynoBCMA/Fc
# Experimental: (§1) Briefly, goat anti-mouse IgG Fc antibody was directly immobilized across a biosensor chip, and antibody samples were injected over reaction matrices at a flow rate of 5 μl/min. Mouse anti-BCMA IgG test antibody was injected over the immobilized surface and captured by the immobilized anti-Fc antibodies. Human and cynomolgus BCMA(ECD)/Fc target polypeptides were then injected over the captured mouse anti-BCMA IgG surface. The association and dissociation rate constants, kₒₙ (M⁻¹s⁻¹) and koff (s⁻¹), respectively, were determined with a continuous flow rate of 30 μl/min. Rate constants were derived by making kinetic binding measurements at five different concentrations of target BCMA(ECD) polypeptide. The equilibrium dissociation constant KD (M) of the reaction between antibodies and related target proteins was then calculated from the kinetic rate constants using the formula KD=koff/kₒₙ. Kinetic constants were determined by processing and fitting the data to a 1:1 binding model using Biacore analysis software.
# [2] = molecular target: T5, recombinant human BCMA extracellular domain/Fc dimer (human); experiment: as above
# T5 construct: also called Human BCMA (ECD); human BCMA(ECD)/Fc
# Experimental: as §1
# BCMA on NCI-H929 cells = molecular target: T1, BCMA on NCI-H929 cells; experiment: cell-based or functional assay
# [3] = molecular target: T2, BCMA on HEK293F-BCMA-NF-kB-luc cells …; experiment: cell-based or functional assay
# [4] = molecular target: T2, BCMA on HEK293F-BCMA-NF-kB-luc cells …; experiment: cell-based or functional assay; remark: listed apart in the source
# [5] = molecular target: T3, cynoCD3εγ/Fc fusion protein; experiment: ELISA on plate-coated cyno CD3e/g heterodimer-Fc, OD450nm, unit taken from the concentration axis
# Experimental: (§2) The binding properties of the isolated murine anti-CD3 antibodies were measured with ELISA as follows: Heterodimeric CD3εγ/Fc fusion protein was coated at 1 μg/mL on 96-well plates at 4° C. overnight. Plates were washed once with washing buffer (PBS containing 0.05% Tween 20) and blocked with ELISA blocking buffer (1% BSA in PBS containing 0.05% Tween 20) at room temperature for 2 hours. Anti-CD3 antibodies were then added and incubated at 37° C. for 1 hour. Plates were washed three times with washing buffer. HRP labeled anti-mouse IgG secondary antibody (Sigma, Cat. #A0168) was added and the plates were incubated at 37° C. for 30 minutes then washed 5 times in washing buffer. 100 μl of tetramethylbenzidine (TMB) chromogenic solution was added to each well. Following color development, the reaction was stopped with 1 Normal HCl and absorbance at 450 nm was measured on a Varioskan™ LUX microplate reader (ThermoFisher Scientific). Binding signals were plotted against antibody concentration with GraphPad Prism 5.0 software and EC50s were calculated accordingly.
# [6] = molecular target: T6, human CD3 on the surface of Jurkat cells (human, UniProt P07766 23-207; P09693 23-182; P04234 22-171); experiment: cell binding assay, Jurkat cells
# T6 construct: whole, on cells; Endogenous CD3 complex of the Jurkat T cell line; also called cell surface CD3 target on Jurkat cells; CD3-expressing Jurkat cells
# [7] = molecular target: T7, recombinant huCD3εγ/Fc fusion protein (fusion protein heterodimer) (human); experiment: ELISA on plate-coated human CD3e/g heterodimer-Fc, OD450nm, unit taken from the concentration axis
# T7 construct: also called huCD3/Fc dimer; heterodimeric CD3εγ/Fc fusion protein
# Experimental: as §2
# [8] = molecular target: T6, human CD3 on the surface of Jurkat cells; experiment: flow cytometry on Jurkat cells, MFI against antibody conc. (nM)
# Experimental: Different humanized VH and VK combinations led to humanized anti-CD3 variants with different CD3 binding affinities. The binding activity of the humanized variants of mAbCD3-001 were tested via flow cytometry with the human CD3-expressing Jurkat T cell line. 5×10⁵ Jurkat cells in FACS buffer were seeded into each well of a 96-well plate. Cells were centrifuged at 400 g for 5 minutes and supernatants were discarded. For each well, 100 μl of serially diluted antibodies were then added and mixed with the cells. After 40 minutes incubation at 4° C., plates were washed several times to remove excess antibodies. […] After another round of centrifugation and a washing step, cells were resuspended in FACS buffer for reading on a CytoFLEX Flow Cytometer (Beckman Coulter). Median Fluorescence Intensity (MFI) readouts were plotted against antibody concentration and analyzed with GraphPad Prism 5.0 software.
# T6 sequence (P07766 23-207, chain 1 of 3): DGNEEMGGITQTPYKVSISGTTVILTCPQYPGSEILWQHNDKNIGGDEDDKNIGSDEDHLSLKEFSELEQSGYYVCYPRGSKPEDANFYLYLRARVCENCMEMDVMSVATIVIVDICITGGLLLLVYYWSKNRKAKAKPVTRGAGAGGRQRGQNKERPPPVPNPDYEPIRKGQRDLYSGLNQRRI
# T6 sequence (P09693 23-182, chain 2 of 3): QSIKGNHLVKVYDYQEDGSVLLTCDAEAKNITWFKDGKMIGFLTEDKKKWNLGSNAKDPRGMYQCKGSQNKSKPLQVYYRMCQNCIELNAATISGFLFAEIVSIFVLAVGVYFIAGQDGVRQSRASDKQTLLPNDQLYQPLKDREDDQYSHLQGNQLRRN
# T6 sequence (P04234 22-171, chain 3 of 3): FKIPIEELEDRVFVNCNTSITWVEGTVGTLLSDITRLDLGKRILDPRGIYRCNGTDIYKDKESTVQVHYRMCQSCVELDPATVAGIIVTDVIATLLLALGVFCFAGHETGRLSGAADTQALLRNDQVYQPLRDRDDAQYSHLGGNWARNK
# T7 sequence (chain, as listed by the source limits assumed, chain 1 of 2): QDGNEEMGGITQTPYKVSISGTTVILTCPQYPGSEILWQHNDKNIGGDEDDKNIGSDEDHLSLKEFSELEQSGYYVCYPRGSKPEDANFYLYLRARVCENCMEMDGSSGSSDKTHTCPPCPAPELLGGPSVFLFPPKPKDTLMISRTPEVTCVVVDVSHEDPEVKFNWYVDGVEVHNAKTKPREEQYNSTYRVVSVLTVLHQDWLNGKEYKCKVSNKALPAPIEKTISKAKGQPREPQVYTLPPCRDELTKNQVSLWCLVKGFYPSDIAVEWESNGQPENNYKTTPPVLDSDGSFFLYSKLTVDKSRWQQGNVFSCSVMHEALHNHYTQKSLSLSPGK
# T7 sequence (chain, as listed by the source limits assumed, chain 2 of 2): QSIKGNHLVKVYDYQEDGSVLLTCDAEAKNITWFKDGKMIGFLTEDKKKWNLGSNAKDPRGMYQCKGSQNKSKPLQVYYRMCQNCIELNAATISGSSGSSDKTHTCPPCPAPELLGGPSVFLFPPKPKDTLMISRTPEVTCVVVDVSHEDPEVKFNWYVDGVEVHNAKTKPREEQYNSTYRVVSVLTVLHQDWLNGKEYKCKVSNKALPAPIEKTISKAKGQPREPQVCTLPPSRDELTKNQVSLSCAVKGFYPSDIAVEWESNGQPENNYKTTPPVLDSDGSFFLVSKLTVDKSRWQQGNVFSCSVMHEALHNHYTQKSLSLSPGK
binder,measurement,setting,value
B1,Kd,[1],3.9 nM
same,koff,[1],0.000236 s⁻¹
same,kon,[1],60600 M⁻¹ s⁻¹
same,Kd,[2],0.408 nM
same,koff,[2],1.85e-05 s⁻¹
same,kon,[2],45400 M⁻¹ s⁻¹
same,"EC50 of inhibition of BAFF-induced NF-kB phosphorylation in NCI-H929 cells (inhibition %), unit from the axis",BCMA on NCI-H929 cells,16.7 nM
same,"EC50 of inhibition of the APRIL-induced NF-kB luciferase signal in HEK293F-BCMA-NF-kB-luc cells (inhibition %), unit from the axis",[3],6.18 nM
same,"EC50 of inhibition of the BAFF-induced NF-kB luciferase signal in HEK293F-BCMA-NF-kB-luc cells (inhibition %), unit from the axis",[4],3.87 nM
B2,EC50,[5],0.0235 µg/mL
same,binding result,[6],binds
same,EC50,[7],0.028 µg/mL
B3,EC50,[5],0.0109 µg/mL
same,binding result,[6],binds
same,EC50,[7],0.01 µg/mL
B4,binding result,[8],binds
